{"source": "paper PMC12325603", "about": "(Nature Communications, 2025)", "biological_target": "the molecule itself", "assay": "cryo-electron tomography", "data": [{"protein": "Munc13C K1494D/K1495D/K1500D (trimer 3xD) (domain or fragment) not shown", "values": [{"measurement": "stoichiometry N", "value": 6}]}]}
